Laboratory results as given in US7026283.

Legend:
[1] = target: rat FcεRI (high affinity IgE receptor) on RBL-2H3 cells (rat) (UniProt P12371); experiment: FACS on RBL-2H3 cells; FITC-conjugated IgE after preincubation with saturating unconjugated 5.14 (competitor); conditions: scale: mCi
[2] = target: rat FcεRI (high affinity IgE receptor) on RBL-2H3 cells (rat) (UniProt P12371); experiment: FACS on RBL-2H3 cells; FITC-conjugated IgE after preincubation with saturating unconjugated 4H7 (competitor); parameters: unit not given here
[3] = target: rat FcεRI (high affinity IgE receptor) on RBL-2H3 cells (rat) (UniProt P12371); experiment: FACS on RBL-2H3 cells; FITC-conjugated IgE after preincubation with saturating unconjugated 3A9 (competitor); conditions: scale: mCi
[4] = target: rat FcεRI (high affinity IgE receptor) on RBL-2H3 cells (rat) (UniProt P12371); experiment: FACS on RBL-2H3 cells; FITC-conjugated IgE at a subsaturating concentration, no preincubation; conditions: scale: mCi
[5] = target: rat FcεRI (high affinity IgE receptor) on RBL-2H3 cells (rat) (UniProt P12371); experiment: FACS on RBL-2H3 cells; FITC-conjugated IgE after preincubation with saturating unconjugated AA4 (anti-ganglioside Gd1b, competitor); conditions: scale: mCi
[6] = target: rat FcεRI (high affinity IgE receptor) on RBL-2H3 cells (rat) (UniProt P12371); experiment: FACS on RBL-2H3 cells; FITC-conjugated IgE after preincubation with saturating unconjugated 1A12 (competitor); conditions: scale: mCi
[7] = target: rat FcεRI (high affinity IgE receptor) on RBL-2H3 cells (rat) (UniProt P12371); experiment: FACS on RBL-2H3 cells; FITC-conjugated IgE after preincubation with saturating unconjugated BC4 (competitor); conditions: scale: mCi

In the case of IgE (antibody), the Median Fluorescence Intensity [1] is reported as 5.5, the Median Fluorescence Intensity [2] is reported as 6.4 and the Median Fluorescence Intensity [3] is reported as 6.5. The Median Fluorescence Intensity [4] was 75, the Median Fluorescence Intensity [5] was 12.3 and the Median Fluorescence Intensity [6] was 61. It also gave a Median Fluorescence Intensity [7] of 5.8.
